Test results taken from patent publication US20140308201A1 (Novartis, published 2014).
Substitutions are numbered along the chain they refer to.

Tests used:
[1] = target: T1, Cynomolgus monkey FGFR2 IIIb D1-3 (cynomolgus monkey); experiment: SPR Biacore, IgG captured via anti-human Fc, soluble FGFR as analyte
T1 construct: also called Cyno FGFR2 IIIb
T1 chain: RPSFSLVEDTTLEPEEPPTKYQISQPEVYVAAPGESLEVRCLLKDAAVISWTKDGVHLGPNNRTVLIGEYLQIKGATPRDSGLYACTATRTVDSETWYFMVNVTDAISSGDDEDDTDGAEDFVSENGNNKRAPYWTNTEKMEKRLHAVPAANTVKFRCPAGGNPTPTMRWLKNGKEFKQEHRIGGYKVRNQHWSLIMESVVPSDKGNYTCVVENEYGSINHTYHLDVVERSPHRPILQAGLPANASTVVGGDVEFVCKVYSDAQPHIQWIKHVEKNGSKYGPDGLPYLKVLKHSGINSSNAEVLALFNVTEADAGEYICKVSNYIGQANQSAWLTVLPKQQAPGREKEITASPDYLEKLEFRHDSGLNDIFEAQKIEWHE
Protocol: (§1) Affinity of the antibodies to FGFR2 species orthologues was determined using Biacore technology using a Biacore T100 instrument (GE Systems) and with CM5 sensor chips.
(§2) For kinetic measurements, experiments were performed in which the antibodies were immobilized to the sensor chip surface and the ability of the FGFR proteins described above listed in Table 1 to bind in free solution was determined Briefly, 50 μg/ml of anti-human Fc antibody at pH 4.75 was immobilized on a CM5 sensor chip through amine coupling at flow rate of 10 μl/minute on all four flow cells to reach 6000 RUs. […] Subsequently, 0.078-100 nM of FGFR receptors, diluted in a 2-fold series, were injected at a flow rate of 80 μl/min for 7 min over both reference and test flow cells. Dissociation of the binding was followed for 10 min using HBS-EP⁺ supplemented with 0.5 mg/ml of BSA and 10 μg/ml heparin as running buffer. After each injection cycle, the chip surface was regenerated with 10 mM glycine, pH 2.0 at 60 μl/min for 70 s.

[2] = target: T2, Human FGFR2 IIIb D1-3 (human); experiment: as above
T2 construct: Extracellular domains D1-3 with C-terminal tag, made in HEK293T; also called recombinant human FGFR2 IIIb; hFGFR2
T2 chain: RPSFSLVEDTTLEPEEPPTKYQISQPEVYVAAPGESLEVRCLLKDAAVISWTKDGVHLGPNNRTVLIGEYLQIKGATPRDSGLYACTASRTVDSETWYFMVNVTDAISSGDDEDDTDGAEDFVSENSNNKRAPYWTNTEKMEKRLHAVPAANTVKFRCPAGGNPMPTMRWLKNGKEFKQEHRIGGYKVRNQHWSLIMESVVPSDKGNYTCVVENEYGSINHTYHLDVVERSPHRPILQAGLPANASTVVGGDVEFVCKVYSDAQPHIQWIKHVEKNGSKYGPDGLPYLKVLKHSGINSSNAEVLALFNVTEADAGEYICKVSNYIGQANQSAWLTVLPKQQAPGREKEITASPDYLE
Protocol: as §1, §2

[3] = target: T1, Cynomolgus monkey FGFR2 IIIb D1-3; experiment: SPR Biacore, method as Example 2
Protocol: as §2

[4] = target: T2, Human FGFR2 IIIb D1-3; experiment: SPR Biacore, method as Example 2
Protocol: as §2

[5] = target: T3, FGFR2 D2-D3 Construct (human); experiment: HDx-MS, antigen incubated 30 min with antibody
T3 construct: E. coli made, not glycosylated; also called E. Coli. derived FGFR2D2-D3 protein
T3 chain: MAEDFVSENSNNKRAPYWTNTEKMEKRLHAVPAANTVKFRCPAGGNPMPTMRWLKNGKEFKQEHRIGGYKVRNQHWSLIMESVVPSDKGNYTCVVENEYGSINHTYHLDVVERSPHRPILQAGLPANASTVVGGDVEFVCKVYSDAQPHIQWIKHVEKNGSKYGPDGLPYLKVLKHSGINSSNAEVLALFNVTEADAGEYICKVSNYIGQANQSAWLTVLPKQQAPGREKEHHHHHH
Protocol: The epitope mapping experiments described in this example were performed on a Waters HDx-MS platform, which includes a LEAP autosampler, nanoACQUITY UPLC System, and Synapt G2 mass spectrometer. The studies were automated by a LEAP autosampler operated by the LeapShell software, which performed initiation of the deuterium exchange reaction, reaction time control, quench reaction, injection onto the UPLC system and digestion time control. The Leap autosampler was equipped with two temperature controlled stacks maintained at 25° C. for HDx reaction and maintained at 2° C. for storage of protein and quench solution, respectively. Triplicate control experiments were carried out on antigen at a deuterium exchange time of 25 minutes. HDX was quenched with quenching buffer (6 M urea and 1 M TCEP pH=2.5). […] Triplicate experiments were carried out on antigen-mAb complex just as the control experiments except in these experiments the antigen in incubated for 30 min with the antibody at 25° C. prior to deuterium exchange.

[6] = target: T4, complement factor Clq (UniProt P02745 23-245; P02746 28-253; P02747 29-245); experiment: ELISA, antibody coated in serial dilution, constant C1q; inferred from about 50% coating
T4 construct: bought (Sigma C1740); also called C1q; Complement component Clq (Sigma C1740)
Protocol: In additional studies, the ability of the unconjugated anti-FGFR2 antibodies to bind the complement factor Clq was evaluated. […] In order to monitor the amount of bound antibody analyte on the microtiterplate, this procedure was performed twice per plate utilizing the second dilution (in triplicate) for determining the coating efficacy of the analyte to the plate.

[7] = target: T2, Human FGFR2 IIIb D1-3; experiment: SPR Biacore, method as Example 2
Protocol: as §2

[8] = target: T2, Human FGFR2 IIIb D1-3; experiment: SPR Biacore, method as Example 2
[9] = target: T5, Rat FGFR2 IIIb D1-3 (rat); experiment: SPR Biacore, IgG captured via anti-human Fc, soluble FGFR as analyte
T5 chain: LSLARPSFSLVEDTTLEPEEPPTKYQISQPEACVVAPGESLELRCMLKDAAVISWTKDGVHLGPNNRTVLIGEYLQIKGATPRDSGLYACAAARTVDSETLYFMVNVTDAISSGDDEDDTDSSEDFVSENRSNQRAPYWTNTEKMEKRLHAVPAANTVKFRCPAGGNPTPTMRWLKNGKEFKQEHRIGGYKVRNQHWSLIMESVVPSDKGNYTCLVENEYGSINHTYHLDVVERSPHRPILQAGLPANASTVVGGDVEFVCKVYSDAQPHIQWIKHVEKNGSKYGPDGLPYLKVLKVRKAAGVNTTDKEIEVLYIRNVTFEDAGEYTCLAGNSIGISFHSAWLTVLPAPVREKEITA
Protocol: as §1, §2

[10] = target: T6, Mouse FGFR2 IIIb D1-3 (mouse); experiment: as above
T6 chain: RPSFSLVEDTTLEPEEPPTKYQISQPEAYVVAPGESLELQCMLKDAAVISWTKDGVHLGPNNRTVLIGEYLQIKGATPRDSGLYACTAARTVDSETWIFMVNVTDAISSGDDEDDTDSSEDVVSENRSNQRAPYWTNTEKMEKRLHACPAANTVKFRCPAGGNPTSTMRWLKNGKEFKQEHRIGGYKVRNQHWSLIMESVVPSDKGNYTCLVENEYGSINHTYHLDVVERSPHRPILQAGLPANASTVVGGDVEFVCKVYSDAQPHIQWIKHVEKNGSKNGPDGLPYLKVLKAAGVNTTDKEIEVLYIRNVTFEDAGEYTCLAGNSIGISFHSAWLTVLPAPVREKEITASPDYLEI
Protocol: as §1, §2

[11] = target: T7, Human FGFR4 ECD (human, UniProt P22455 22-369); experiment: screening of panning outputs for specificity and cross-reactivity (assays of Example 1)
T7 construct: Extracellular domain with C-terminal tag

[12] = target: T2, Human FGFR2 IIIb D1-3; experiment: SPR Biacore, similar assay conditions
[13] = target: T8, FGFR2 D2 (human); experiment: complex purified by size exclusion chromatography and crystallised
T8 construct: trypsin was added to the complex before crystallisation; also called FGFR D2; human FGFR2 ECD fragment (domain 2)
T8 chain: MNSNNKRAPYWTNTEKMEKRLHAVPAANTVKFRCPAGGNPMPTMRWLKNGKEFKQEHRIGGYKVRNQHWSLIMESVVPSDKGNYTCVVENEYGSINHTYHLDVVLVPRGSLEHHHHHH
Protocol: Peak fractions were analyzed by SDS-PAGE and LCMS.
Crystals were grown by sitting drop vapor diffusion. In detail, 0.1 μl of protein was mixed with 0.1 μl of reservoir solution which contains 0.1 M tri-sodium citrate dihydrate pH 5.0, 20% (w/v) PEG6000; and the drop was equilibrated against 45 μl of the same reservoir solution at 20° C.

[14] = target: T2, Human FGFR2 IIIb D1-3; experiment: SET or Biacore, IgG

T4 sequence (P02745 23-245 limits assumed, chain 1 of 3): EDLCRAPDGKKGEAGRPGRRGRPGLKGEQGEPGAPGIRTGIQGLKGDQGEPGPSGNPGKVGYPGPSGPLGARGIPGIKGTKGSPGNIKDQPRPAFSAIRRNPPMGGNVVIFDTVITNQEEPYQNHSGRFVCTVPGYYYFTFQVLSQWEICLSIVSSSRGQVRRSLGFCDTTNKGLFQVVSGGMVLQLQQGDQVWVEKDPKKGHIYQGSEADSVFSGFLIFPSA
T4 sequence (P02746 28-253 limits assumed, chain 2 of 3): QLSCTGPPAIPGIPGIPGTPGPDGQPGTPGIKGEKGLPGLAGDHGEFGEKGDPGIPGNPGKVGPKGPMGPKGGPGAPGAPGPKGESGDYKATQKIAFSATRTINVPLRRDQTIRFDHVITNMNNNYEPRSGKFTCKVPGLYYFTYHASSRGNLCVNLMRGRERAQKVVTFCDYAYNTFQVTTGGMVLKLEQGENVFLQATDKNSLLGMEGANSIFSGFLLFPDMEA
T4 sequence (P02747 29-245 limits assumed, chain 3 of 3): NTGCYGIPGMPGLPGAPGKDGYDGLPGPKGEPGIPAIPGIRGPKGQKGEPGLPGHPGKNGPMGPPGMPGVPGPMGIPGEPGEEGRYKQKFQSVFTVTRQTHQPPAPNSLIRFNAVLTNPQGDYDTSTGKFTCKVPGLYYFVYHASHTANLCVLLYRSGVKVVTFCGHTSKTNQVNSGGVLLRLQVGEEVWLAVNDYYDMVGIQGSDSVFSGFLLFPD

B1: mAb10164 (antibody, human IgG1, lambda, V domains shown)
VH: QVQLVESGGGLVKPGGSLRLSCAASGFTFSSYALSWVRQAPGKGLEWVGRIRSKIDGGTTDYAAPVKGRFTISRDDSKNTLYLQMNSLKTEDTAVYYCARDRSPSDSSAFAIWGQGTLVTVSS
VL: DIELTQPPSVSVSPGQTASITCSGDNLGSQYVDWYQQKPGQAPVLVIYDDNDRPSGIPERFSGSNSGNTATLTISGTQAEDEADYYCQSWDSLSVVFGGGTKLTVLG
notes: HuCAL human IgG1
[1]
  Kd: 16 nM
[2]
  Kd: 19 nM
[3]
  Kd: 9 nM
[4]
  Kd: 2 nM
[5]
  binding result: binds
[6]
  C1q binding capacity against the other antibodies: ~2 fold
[7]
  Kd: 2 nM

B2: mAb20437 (antibody, human IgG1, lambda, V domains shown)
VH: B1 VH with Q1E, K54R, D56E, K67R
VL: B1 VL with D1S, I2Y, P8L, S13A, P14L, S19R, G76R, T77A, E80G
notes: human IgG1
[8]
  Kd: 3.1 nM

B3: mAb12422 (antibody, human IgG1, kappa, V domains shown)
VH: QVQLVQSGAEVKKPGSSVKVSCKASGGTFSSYAISWVRQAPGQGLEWMGYISPYMGETHYAQKFQGRVTITADESTSTAYMELSSLRSEDTAVYYCARESYEYFDIWGQGTLVTVSS
VL: DIQMTQSPSSLSASVGDRVTITCRASQSISNDLAWYQQKPGKAPKLLIYATSILQSGVPSRFSGSGSGTDFTLTISSLQPEDFATYYCLQYYDYSYTFGQGTKVEIKR
notes: HuCAL human IgG1
[9]
  Kd: 9.7 nM
[1]
  Kd: 7.4 nM
[2]
  Kd: 5.1 nM
[10]
  Kd: 7.7 nM
[11]
  binding result: binds
[7]
  Kd: 5.1 nM

B4: mAb11725 (antibody, human IgG1, lambda, V domains shown)
VH: QVQLLESGGGLVQPGGSLRLSCAASGFTFNTYWLHWVRQAPGKGLEWVSVISSDSSSTYYADSVKGRFTISRDNSKNTLYLQMNSLRAEDTAVYYCARDSRLDYWGQGTLVTVSS
VL: DIELTQPPSVSVSPGQTASITCSGDSIGDTYVDWYQQKPGQAPVLVIYDDIDRPSGIPERFSGSNSGNTATLTISGTQAEDEADYYCYVYAWTGTSNVFGGGTKLTVLG
notes: HuCAL human IgG1
[9]
  Kd: 140 nM
[1]
  Kd: 7.3 nM
[2]
  Kd: 26 nM
[10]
  Kd: 130 nM
[7]
  Kd: 3.3 nM

B5: mAb20562 (antibody, human IgG1, kappa, V domains shown)
VH: EVQLLESGGGLVQPGGSLRLSCAASGFTFSDYAMSWVRQAPGKGLEWVSVIEGDASYTHYADSVRGRFTISRDNSKNTLYLQMNSLRAEDTAVYYCARERTYSSAFDYWGQGTLVTVSS
VL: DIQMTQSPSSLSASVGDRVTITCRASQDISSDLNWYQQKPGKAPKLLIYDASNLQSGVPSRFSGSGSGTDFTLTISSLQPEDFATYYCQQHYSPSHTFGQGTKVEIKR
notes: human IgG1
[12]
  Kd: 9 nM

B6: mAb12439 (antibody, human IgG1, kappa, V domains shown)
VH: QVQLVQSGAEVKKPGASVKVSCKASGYTFTSYDISWVRQAPGQGLEWMGWINPYNGGTNYAQKFQGRVTMTRDTSISTAYMELSRLRSEDTAVYYCAREGSGMIVYPGWSYAFDYWGQGTLVTVSS
VL: B5 VL with S31N, N34G, D50A, N53S, S93H, P94T, S95P, H96N
notes: HuCAL human IgG1
[9]
  Kd: 16 nM
[1]
  Kd: 5.6 nM
[2]
  Kd: 15 nM
[10]
  Kd: 15 nM
[11]
  binding result: binds
[7]
  Kd: 15 nM

B7: mAb12947 (antibody, human IgG1, kappa, V domains shown)
VH: QVQLVQSGAEVKKPGSSVKVSCKASGGTFSSYAISWVRQAPGQGLEWMGSIQPTAGPARYAQKFQGRVTITADESTSTAYMELSSLRSEDTAVYYCARASLYSVATGSYWKVYHPFDSWGQGTLVTVSS
VL: B5 VL with S30Y, D32Y, N34A, N53S, H91A, Y92D, S93Q, P94Y, S95P, H96V
notes: HuCAL human IgG1
[9]
  Kd: 5.1 nM
[1]
  Kd: 2.4 nM
[2]
  Kd: 2.7 nM
[10]
  Kd: 3.1 nM
[7]
  Kd: 2.7 nM

B8: 12425 Fab (Fab, V domains shown)
VH: B5 VH with E1Q, A55G, R65K, R100K
VL: B5 VL with T85V
[13]
  binding result: binds

B9: mAb20811 (antibody, human IgG1, kappa, V domains shown)
VH: B5 VH with E1Q, V50T, A55S, S56N, T58I, H59E, R65K
VL: B5 VL with Q89H, H91W, P94T, S95L, H96Y
notes: IgG
[14]
  Kd: 0.11 nM
